The chains are these.
B1: LINE1-mini (parent)
chain: GGCAGAGCUCAACACAGCGUGGCAAAGUGGCUGUGGCUAGACUGCC

The variants in the data set derive from B1. The experiment in a line: self-cleavage, relative activity (ratio to wild type); higher = more cleavage; in vitro, sequencing; the parent is a self-cleaving ribozyme.
Regarding GGCAGAGCUCAACACAGCUUGGGAAAGUGGCUGUGGCUAGACUGCC [G19U C23G], the self-cleavage stood at 0.7.

As for GGCAGAGCUCAACACAGCUUGGUAAAGUGGCUGUGGCUAGACUGCC [G19U C23U], the self-cleavage is 1.03.

Turning to GGCAGAGCUCAACACAGCUUGGAAAAGUGGCUGUGGCUAGACUGCC [G19U C23A], the self-cleavage turned out to be 0.64.

As to GGCAGAGCUCAACACAGCUUGGCAAAGUGGCUGUGGCUACACUGCC [G19U G40C], the self-cleavage stood at 0.05.

Turning to GGCAGAGCUCAACACAGCUUGGCAAAGUGGCUGUGGCUAUACUGCC [G19U G40U], the self-cleavage turned out to be 0.1.

In the case of GGCAGAGCUCAACACAGCUUGGCAAAGUGGCUGUGGCUAAACUGCC [G19U G40A], the self-cleavage worked out at 0.08.

For GGCAGAGCUCAACACAGCUUGGCAAAGUGGCUGUGGCUAGAUUGCC [G19U C42U], the self-cleavage stood at 0.3.

In the case of GGCAGAGCUCAACACAGCUUGGCAAAGUGGCUGUGGCUAGAGUGCC [G19U C42G], the self-cleavage was 0.07.

On to GGCAGAGCUCAACACAGCUUGGCAAAGUGGCUGUGGCUAGAAUGCC [G19U C42A], for which the self-cleavage was determined as 0.14.

Turning to GGCAGAGCUCAACACAGCUUGGCAAAGUGGCUGUGGAUAGACUGCC [G19U C37A], the self-cleavage came out at 0.05.

As to GGCAGAGCUCAACACAGCUUGGCAAAGUGGCUGUGGUUAGACUGCC [G19U C37U], the self-cleavage came out at 0.04.

Consider GGCAGAGCUCAACACAGCUUGGCAAAGUGGCUGUGGGUAGACUGCC [G19U C37G], for which the self-cleavage is 0.02.

GGCAGAGCUCAACACAGCUUGGCAAAGUGCCUGUGGCUAGACUGCC [G19U G30C]: the self-cleavage was 0.59.

As to GGCAGAGCUCAACACAGCUUGGCAAAGUGACUGUGGCUAGACUGCC [G19U G30A], the self-cleavage turned out to be 0.96.

Take GGCAGAGCUCAACACAGCUUGGCAAAGUGUCUGUGGCUAGACUGCC [G19U G30U]: the self-cleavage is 1.11.

As for GGCAGAGCUCAACACAGCUUGGCAAAGUGGCUGUGGCUAGACUACC [G19U G44A], the self-cleavage was determined as 0.27.

For GGCAGAGCUCAACACAGCUUGGCAAAGUGGCUGUGGCUAGACUCCC [G19U G44C], the self-cleavage was determined as 0.31.

Consider GGCAGAGCUCAACACAGCUUGGCAAAGUGGCUGUGGCUAGACUUCC [G19U G44U], for which the self-cleavage turned out to be 0.28.

Regarding GGCAGAGCUCAACACAGCUUAGCAAAGUGGCUGUGGCUAGACUGCC [G19U G21A], the self-cleavage was determined as 0.64.

Regarding GGCAGAGCUCAACACAGCUUUGCAAAGUGGCUGUGGCUAGACUGCC [G19U G21U], the self-cleavage was found to be 0.58.

Regarding GGCAGAGCUCAACACAGCUUCGCAAAGUGGCUGUGGCUAGACUGCC [G19U G21C], the self-cleavage came out at 0.81.

In the case of GGCAGAGCUCAACACAGCUUGGCAAAGUGGCUGUGGCUAGACUGAC [G19U C45A], the self-cleavage came out at 0.43.

As for GGCAGAGCUCAACACAGCUUGGCAAAGUGGCUGUGGCUAGACUGGC [G19U C45G], the self-cleavage was 0.82.

Consider GGCAGAGCUCAACACAGCUUGGCAAAGUGGCUGUGGCUAGACUGUC [G19U C45U], for which the self-cleavage turned out to be 1.38.

With GGCAGAGCUCAACACAGCUUGGCAAAAUGGCUGUGGCUAGACUGCC [G19U G27A], the self-cleavage stood at 0.54.

With GGCAGAGCUCAACACAGCUUGGCAAACUGGCUGUGGCUAGACUGCC [G19U G27C], the self-cleavage was 0.75.

Take GGCAGAGCUCAACACAGCUUGGCAAAUUGGCUGUGGCUAGACUGCC [G19U G27U]: the self-cleavage was 0.58.

As for GGCAGAGCUCAACACAGCUUGGCAAAGUGGCUGUGGCUUGACUGCC [G19U A39U], the self-cleavage amounted to 0.58.

As for GGCAGAGCUCAACACAGCUUGGCAAAGUGGCUGUGGCUGGACUGCC [G19U A39G], the self-cleavage stood at 0.06.

GGCAGAGCUCAACACAGCUUGGCAAAGUGGCUGUGGCUCGACUGCC [G19U A39C]: the self-cleavage stood at 0.06.

Regarding GGCAGAGCUCAACACAGCUUGUCAAAGUGGCUGUGGCUAGACUGCC [G19U G22U], the self-cleavage was determined as 0.63.

In the case of GGCAGAGCUCAACACAGCUUGACAAAGUGGCUGUGGCUAGACUGCC [G19U G22A], the self-cleavage was 0.78.

GGCAGAGCUCAACACAGCUUGCCAAAGUGGCUGUGGCUAGACUGCC [G19U G22C]: the self-cleavage came out at 0.5.

For the variant GGCAGAGCUCAACACAGCUUGGCAAAGUGGCUAUGGCUAGACUGCC [G19U G33A], the self-cleavage turned out to be 0.18.

For GGCAGAGCUCAACACAGCUUGGCAAAGUGGCUUUGGCUAGACUGCC [G19U G33U], the self-cleavage was determined as 0.13.

Take GGCAGAGCUCAACACAGCUUGGCAAAGUGGCUCUGGCUAGACUGCC [G19U G33C]: the self-cleavage is 0.07.

With GGCAGAGCUCAACACAGCUUGGCAAAGUGGCUGUGGCUAGACUGCU [G19U C46U], the self-cleavage came to 0.86.

With GGCAGAGCUCAACACAGCUUGGCAAAGUGGCUGUGGCUAGACUGCA [G19U C46A], the self-cleavage is 1.08.

Regarding GGCAGAGCUCAACACAGCUUGGCAAAGUGGCUGUGGCUAGACUGCG [G19U C46G], the self-cleavage was found to be 0.71.

Take GGCAGAGCUCAACACAGCUCGGCAAAGUGGCUGUGGCUAGACUGCC [G19U U20C]: the self-cleavage was found to be 0.76.

Consider GGCAGAGCUCAACACAGCUAGGCAAAGUGGCUGUGGCUAGACUGCC [G19U U20A], for which the self-cleavage was determined as 0.86.

Consider GGCAGAGCUCAACACAGCUUGGCAAAGUGGCUGUGGCUAGCCUGCC [G19U A41C], for which the self-cleavage was found to be 0.03.

On to GGCAGAGCUCAACACAGCUUGGCAAAGUGGCUGUGGCUAGGCUGCC [G19U A41G], for which the self-cleavage amounted to 0.2.

As to GGCAGAGCUCAACACAGCUUGGCAAAGUGGCUGUGGCUAGUCUGCC [G19U A41U], the self-cleavage was 0.41.

On to GGCAGAGCUCAACACAGCUUGGCAAAGUCGCUGUGGCUAGACUGCC [G19U G29C], for which the self-cleavage is 0.64.

As for GGCAGAGCUCAACACAGCUUGGCAAAGUAGCUGUGGCUAGACUGCC [G19U G29A], the self-cleavage amounted to 0.93.

In the case of GGCAGAGCUCAACACAGCUUGGCAAAGUUGCUGUGGCUAGACUGCC [G19U G29U], the self-cleavage was determined as 0.8.

For the variant GGCAGAGCUCAACACAGCUUGGCAAAGUGGAUGUGGCUAGACUGCC [G19U C31A], the self-cleavage was determined as 0.37.

Regarding GGCAGAGCUCAACACAGCUUGGCAAAGUGGGUGUGGCUAGACUGCC [G19U C31G], the self-cleavage was determined as 0.05.

Turning to GGCAGAGCUCAACACAGCUUGGCAAAGUGGUUGUGGCUAGACUGCC [G19U C31U], the self-cleavage was 0.44.

As for GGCAGAGCUCAACACAGCUUGGCAAAGUGGCUGUGACUAGACUGCC [G19U G36A], the self-cleavage was determined as 0.1.

As for GGCAGAGCUCAACACAGCUUGGCAAAGUGGCUGUGUCUAGACUGCC [G19U G36U], the self-cleavage is 0.04.

On to GGCAGAGCUCAACACAGCUUGGCAAAGUGGCUGUGCCUAGACUGCC [G19U G36C], for which the self-cleavage turned out to be 0.1.

In the case of GGCAGAGCUCAACACAGCUUGGCAAAGUGGCUGUAGCUAGACUGCC [G19U G35A], the self-cleavage stood at 0.12.

GGCAGAGCUCAACACAGCUUGGCAAAGUGGCUGUUGCUAGACUGCC [G19U G35U]: the self-cleavage came out at 0.16.

For GGCAGAGCUCAACACAGCUUGGCAAAGUGGCUGUCGCUAGACUGCC [G19U G35C], the self-cleavage amounted to 0.09.

(Values after the RNAGym collection of RNA variant scans (doi:10.7554/elife.90254).)
